Sequences and labels used below:
B1: CD3 Fc-fusion protein (murine IgG2a Fc) (Fc fusion)
chain: DGNEEMGGITQTPYKVSISGTTVILTCPQYPGSEILWQHNDKNIGGDEDDKNIGSDEDHLSLKEFSELEQSGYYVCYPRGSKPEDANFYLYLRARVCENCMEMD
notes: Soluble antigen of the bridging ELISA; not shown: murine IgG2a Fc

For assay [1], the target named is T1, TWICE277 plus TWICE278, combined, not cleaved.
T1 construct: Two-component pair with intact hetero-Fc dimerization domains
Kind of assay: CD3 bridging ELISA on coated EpCAM. The protocol:
(§1) To test the domain swap and generation of functional paratopes (i.e., paired VH/VL domains) by TWICE pairs, a bridging ELISA assay was developed that measures the ability of TWICE pairs to bind target antigen and immune cell engaging molecules simultaneously. The schematic drawing in FIG. 9A illustrates the principle of this bridging ELISA. Briefly, the ELISA plates are coated with target antigen (recombinant soluble EpCAM, black hexagon) at a concentration of 5 μg/ml overnight. TWICE molecules can be activated by cleavage with FXa as described above, and then added to the plate at a serial dilution. The TWICE can bind to the target antigen with their target binding moiety, which is drawn as Fab (4 grey ovals) in FIG. 9A. Binding to the target antigen (EpCAM) on the plate brings the TWICEs in close proximity, which allows the immune cell binding domain and the complementary binding domain to undergo domain swap and form complete immune cell binding paratopes (black and white ovals in FIG. 9A). The functional complementation is measured by incubation with an antigen that is bound by the immune cell binding domain, such as CD3 (striped triangle in FIG. 9A). The antigen is provided as an Fc-fusion protein (murine IgG2a Fc), and can therefore be detected with an anti-mouse Fc secondary antibody. […]

Assay [2] concerns the target T2, Recombinant soluble EpCAM-His6 protein (UniProt P16422 24-265).
T2 construct: Coated on ELISA plates at 5 ug/ml; also called target antigen; not shown: His6 tag
T2 sequence (looked up): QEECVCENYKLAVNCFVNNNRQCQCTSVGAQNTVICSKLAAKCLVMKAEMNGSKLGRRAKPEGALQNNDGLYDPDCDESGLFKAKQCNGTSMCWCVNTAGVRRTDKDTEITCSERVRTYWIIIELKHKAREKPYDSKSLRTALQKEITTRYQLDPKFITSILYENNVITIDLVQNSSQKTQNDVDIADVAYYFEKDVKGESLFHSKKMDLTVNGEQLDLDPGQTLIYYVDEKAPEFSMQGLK
The assay can be described thus: ELISA on coated EpCAM-His6. From the text:
TWICE molecules were engineered with the CD3 antibody SP34 and the CTLA4 antibody Ipilimumab and containing the hetero-Fc dimerization domain. In some examples, the anti-EpCAM antibody Solitomab was used as a Fab (TWICE277 and TWICE278), in other examples this antibody was used as a disulfide-stabilized Fv (dsFv, TWICE332 and TWICE335) by engineering a disulfide between the residue 44 of the VH and residue 100 of the VL (referring to Kabat numbering). The TWICE molecules were expressed and purified by Protein A affinity chromatography as described above, and their ability to bind to EpCAM was tested in an ELISA binding assay. Recombinant soluble EpCAM-His6 protein (produced in-house) was coated on ELISA plates at 5 μg/ml at 4° C. overnight and plates blocked with 1% BSA in PBS. Serial dilutions of TWICE were allowed to bind to EpCAM, and the bound TWICE were detected with a mouse anti-human Fc secondary (JDC-10 Abcam, ab99759).
On the technique in general: An ELISA detects its analyte on a solid surface through an enzyme-linked reagent.

The target of assay [3] is T3, Recombinant soluble EpCAM-His6 protein (UniProt P16422 24-265).
T3 chain: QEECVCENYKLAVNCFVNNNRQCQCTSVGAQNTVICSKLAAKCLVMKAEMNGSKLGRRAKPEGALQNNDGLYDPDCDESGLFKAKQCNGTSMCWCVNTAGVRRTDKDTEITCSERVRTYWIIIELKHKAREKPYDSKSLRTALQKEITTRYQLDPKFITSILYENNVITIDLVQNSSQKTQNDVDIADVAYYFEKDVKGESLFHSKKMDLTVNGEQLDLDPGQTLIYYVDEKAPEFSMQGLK
The assay can be described thus: ELISA.

For assay [4], the target named is B1. Kind of assay: CD3 bridging ELISA on coated EpCAM, CD3-Fc detected with anti-mouse Fc. The protocol: as §1
Assay [5] has as its target T4, CTLA-4 Fc-fusion protein (murine IgG2a Fc) (murine, UniProt P16410 36-161 (human entry), limits assumed).
T4 construct: Soluble antigen of the bridging ELISA; not shown: murine IgG2a Fc
Kind of assay: CTLA-4 bridging ELISA on coated EpCAM, CTLA-4-Fc detected with anti-mouse Fc. The protocol: as §1

What is called EC50 is the concentration giving half of the maximal effect.

T4 sequence (P16410 36-161 limits assumed): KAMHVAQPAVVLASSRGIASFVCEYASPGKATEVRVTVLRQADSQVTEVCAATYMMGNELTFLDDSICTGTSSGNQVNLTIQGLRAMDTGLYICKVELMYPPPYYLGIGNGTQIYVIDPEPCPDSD

B1: the binding result in assay [1] was “no binding”.

B2: TWICE278 (other)
heavy: EVQLLEQSGAELVRPGTSVKISCKASGYAFTNYWLGWVKQRPGHGLEWIGDIFPGSGNIHYNEKFKGKATLTADKSSSTAYMQLSSLTFEDSAVYFCARLRNWDEPMDYWGQGTTVTVSSASTKGPSVFPLAPSSKSTSGGTAALGCLVKDYFPEPVTVSWNSGALTSGVHTFPAVLQSSGLYSLSSVVTVPSSSLGTQTYICNVNHKPSNTKVDKKVEPKSCDKTHTGGGGSGGGGSQVQLVESGGGVVQPGRSLRLSCAASGFTFSSYTMHWVRQAPGKGLEWVTFISYDGNNKYYADSVKGRFTISRDNSKNTLYLQMNSLRAEDTAIYYCARTGWLGPFDYWGQGTLVTVSSGGGIEGRGGGDKTHTCPPCPAPELLGGPSVFLFPPKPKDTLMISRTPEVTCVVVDVSHEDPEVKFNWYVDGVEVHNAKTKPREEQYQSTYRVVSVLTVLHQDWLNGKEYKCKVSNKALPAPIEKTISKAKGQPREPQVYTLPPSRDELTKNQVKLTCLVKGFYPSDIAVEWESNGQPENNYKTTPPVLDSDGSFFLYSLLTVDKSRWQQGNVFSCSVMHEALHNHYTQKSLSLSPG
light: ELVMTQSPSSLTVTAGEKVTMSCKSSQSLLNSGNQKNYLTWYQQKPGQPPKLLIYWASTRESGVPDRFTGSGSGTDFTLTISSVQAEDLAVYYCQNDYSYPLTFGAGTKLEIKRTVAAPSVFIFPPSDEQLKSGTASVVCLLNNFYPREAKVQWKVDNALQSGNSQESVTEQDSKDSTYSLSSTLTLSKADYEKHKVYACEVTHQGLSSPVTKSFNRGECGGGGSGGGGSGGGGSQAVVTQEPSLTVSPGGTVTLTCRSSTGAVTASNYANWVQQKPGQAPRGLIGGTNKRAPWTPARFSGSLLGGKAALTITGAQAEDEADYYCALWYSNLWVFGGGTKLTVLGGGIEGRGGGDKTHTCPPCPAPELLGGPSVFLFPPKPKDTLMISRTPEVTCVVVDVSHEDPEVKFNWYVDGVEVHNAKTKPREEQYQSTYRVVSVLTVLHQDWLNGKEYKCKVSNKALPAPIEKTISKAKGQPREPQVYTLPPSRDELTKNQVSLTCLVSGFYPSDIAVEWESNGQPENNYKTTPPVLDSDGSFKLYSKLTVDKSRWQQGNVFSCSVMHEALHNHYTQKSLSLSPG
notes: One TWICE component: anti-EpCAM (Solitomab) Fab, Ipilimumab VH, SP34 VL, FXa-cleavable linkers, hetero-Fc; Uncleaved in the EpCAM ELISA; In the bridging ELISA it was tested alone, also after FXa cleavage; also called Ipilimumab VH SP34 VL Fc
In the case of B2, the binding result in assay [2] is “binds”; in assay [4], “no binding”; in assay [5], “no binding”. Also, the EC50 in assay [3] came out at 1.21 nM.

B3: TWICE335 (other)
heavy: EVQLLEQSGAELVRPGTSVKISCKASGYAFTNYWLGWVKQRPGHCLEWIGDIFPGSGNIHYNEKFKGKATLTADKSSSTAYMQLSSLTFEDSAVYFCARLRNWDEPMDYWGQGTTVTVSSGGGSGGGGSQVQLVESGGGVVQPGRSLRLSCAASGFTFSSYTMHWVRQAPGKGLEWVTFISYDGNNKYYADSVKGRFTISRDNSKNTLYLQMNSLRAEDTAIYYCARTGWLGPFDYWGQGTLVTVSSGGGIEGRGGGDKTHTCPPCPAPELLGGPSVFLFPPKPKDTLMISRTPEVTCVVVDVSHEDPEVKFNWYVDGVEVHNAKTKPREEQYQSTYRVVSVLTVLHQDWLNGKEYKCKVSNKALPAPIEKTISKAKGQPREPQVYTLPPSRDELTKNQVKLTCLVKGFYPSDIAVEWESNGQPENNYKTTPPVLDSDGSFFLYSLLTVDKSRWQQGNVFSCSVMHEALHNHYTQKSLSLSPG
light: ELVMTQSPSSLTVTAGEKVTMSCKSSQSLLNSGNQKNYLTWYQQKPGQPPKLLIYWASTRESGVPDRFTGSGSGTDFTLTISSVQAEDLAVYYCQNDYSYPLTFGCGTKLEIKGGGGSGGGGSQAVVTQEPSLTVSPGGTVTLTCRSSTGAVTASNYANWVQQKPGQAPRGLIGGTNKRAPWTPARFSGSLLGGKAALTITGAQAEDEADYYCALWYSNLWVFGGGTKLTVLGGGIEGRGGGDKTHTCPPCPAPELLGGPSVFLFPPKPKDTLMISRTPEVTCVVVDVSHEDPEVKFNWYVDGVEVHNAKTKPREEQYQSTYRVVSVLTVLHQDWLNGKEYKCKVSNKALPAPIEKTISKAKGQPREPQVYTLPPSRDELTKNQVSLTCLVSGFYPSDIAVEWESNGQPENNYKTTPPVLDSDGSFKLYSKLTVDKSRWQQGNVFSCSVMHEALHNHYTQKSLSLSPG
notes: The anti-EpCAM targeting moiety is a disulfide-stabilized Fv (Cys at VH 44 and VL 100, Kabat); hetero-Fc dimerization domain; also called dsFv Ipilimumab VH SP34 VL Fc
B3: the binding result in assay [2] is “binds”. Besides, in assay [3], the 50% effective concentration (EC50) is 1.04 nM.
